The labels stand for the following.
B1: Example 333 (peptide)
peptide: Y[Aib]EGT[αMePhe(2-F)]TSD[Nle]SI[αMeL]LD[Orn]IAQ[Aib]K([AEEA-AEEA-γGlu-Decanoyl(10-(4-HOOC-PhO))])FI[dE][αMeY]LIK([AEEA-AEEA-γGlu-Decanoyl(10-(4-HOOC-PhO))])GGPSSGAPPPS-NH2
modifications: N-terminus assumed
SMILES: CCCC[C@H](NC(=O)[C@H](CC(=O)O)NC(=O)[C@H](CO)NC(=O)[C@@H](NC(=O)[C@](C)(Cc1ccccc1F)NC(=O)[C@@H](NC(=O)CNC(=O)[C@H](CCC(=O)O)NC(=O)C(C)(C)NC(=O)[C@@H](N)Cc1ccc(O)cc1)[C@@H](C)O)[C@@H](C)O)C(=O)N[C@@H](CO)C(=O)N[C@H](C(=O)N[C@@](C)(CC(C)C)C(=O)N[C@@H](CC(C)C)C(=O)N[C@@H](CC(=O)O)C(=O)N[C@@H](CCCN)C(=O)N[C@H](C(=O)N[C@@H](C)C(=O)N[C@@H](CCC(N)=O)C(=O)NC(C)(C)C(=O)N[C@@H](CCCCNC(=O)COCCOCCNC(=O)COCCOCCNC(=O)CC[C@H](NC(=O)CCCCCCCCCOc1ccc(C(=O)O)cc1)C(=O)O)C(=O)N[C@@H](Cc1ccccc1)C(=O)N[C@H](C(=O)N[C@H](CCC(=O)O)C(=O)N[C@@](C)(Cc1ccc(O)cc1)C(=O)N[C@@H](CC(C)C)C(=O)N[C@H](C(=O)N[C@@H](CCCCNC(=O)COCCOCCNC(=O)COCCOCCNC(=O)CC[C@H](NC(=O)CCCCCCCCCOc1ccc(C(=O)O)cc1)C(=O)O)C(=O)NCC(=O)NCC(=O)N1CCC[C@H]1C(=O)N[C@@H](CO)C(=O)N[C@@H](CO)C(=O)NCC(=O)N[C@@H](C)C(=O)N1CCC[C@H]1C(=O)N1CCC[C@H]1C(=O)N1CCC[C@H]1C(=O)N[C@@H](CO)C(N)=O)[C@@H](C)CC)[C@@H](C)CC)[C@@H](C)CC)[C@@H](C)CC
B2: Example 320 (peptide)
peptide: YXEGTXTSDXSIXLDXKAQXKFIXXLIEGGPSSGAPPPS
modifications: Aib2, αMeF(2F)6, hTyr10, αMeL13, Orn16, Aib20, D-Glu24, αMeY25; K17 and K21: AEEA2-(γ-Glu)-(10-(4-carboxyphenoxy)decanoyl); C-terminal NH2
B3: Example 310 (peptide)
peptide: B2 peptide with K17I, K21E, X24K, E28K
modifications: Aib2, αMeF(2F)6, hTyr10, αMeL13, Orn16, Aib20, αMeY25; K24 and K28: AEEA2-(γ-Glu)-(10-(4-carboxyphenoxy)decanoyl); C-terminal NH2
B4: Example 327 (peptide)
peptide: B2 peptide with K21E, E28K
modifications: Aib2, αMeF(2F)6, hTyr10, αMeL13, Orn16, Aib20, D-Glu24, αMeY25; K17 and K28: AEEA2-(γ-Glu)-(10-(4-carboxyphenoxy)decanoyl); C-terminal NH2
B5: Example 335 (peptide)
peptide: B2 peptide with K21E, E28K
modifications: Aib2, αMeF(2F)6, hTyr10, αMeL13, Orn16, Aib20, D-Glu24, αMeY25; K17 and K28: AEEA2-(γ-Glu)-CO-(CH2)10-CH3; C-terminal NH2
B6: Example 332 (peptide)
peptide: B2 peptide with K17I, E28K
modifications: Aib2, αMeF(2F)6, hTyr10, αMeL13, Orn16, Aib20, D-Glu24, αMeY25; K21 and K28: AEEA2-(γ-Glu)-(10-(4-carboxyphenoxy)decanoyl); C-terminal NH2
B7: Example 328 (peptide)
peptide: B2 peptide with K21E, E28K
modifications: Aib2, αMeF(2F)6, Nle10, αMeL13, Orn16, Aib20, D-Glu24, αMeY25; K17 and K28: AEEA2-(γ-Glu)-(10-(4-carboxyphenoxy)decanoyl); C-terminal NH2
B8: Example 323 (peptide)
peptide: B2 peptide
modifications: Aib2, αMeF(2F)6, hTyr10, αMeL13, Orn16, Aib20, D-Glu24, αMeY25; K17 and K21: AEEA2-(γ-Glu)-CO-(CH2)10-CH3; C-terminal NH2
B9: Example 321 (peptide)
peptide: B2 peptide
modifications: Aib2, αMeF(2F)6, Nle10, αMeL13, Orn16, Aib20, D-Glu24, αMeY25; K17 and K21: AEEA2-(γ-Glu)-(10-(4-carboxyphenoxy)decanoyl); C-terminal NH2
B10: Example 291 (peptide)
peptide: YXEGTXTSDXSIXLDXKAQXEFIXXLIEGGPSSGAPPPSK
modifications: Aib2, αMeF(2F)6, OMeY10, αMeL13, Orn16, Aib20, D-Glu24, αMeY25; K17 and K40: AEEA2-(γ-Glu)-CO-(CH2)10-CH3; C-terminal NH2
B11: Example 247 (peptide)
peptide: B2 peptide with S11X, K17I, E28K
modifications: Y-Aib-EGT-αMeF(2F)-TSD-4Pal-Aib-I-αMeL-LD-Orn-IAQ-Aib-K((2-[2-(2-Amino-ethoxy)-ethoxy]-acetyl)2-(γ-Glu)-(10-(4-carboxyphenoxy)decanoyl))FI-(D-Glu)-αMeY-LIK((2-[2-(2-Amino-ethoxy)-ethoxy]-acetyl)2-(γ-Glu)-(10-(4-carboxyphenoxy)decanoyl))GGPSSGAPPPS-NH2
B12: Example 248 (peptide)
peptide: B10 peptide with S11X, K17I, E21K
modifications: Y-Aib-EGT-αMeF(2F)-TSD-4Pal-Aib-I-αMeL-LD-Orn-IAQ-Aib-K((2-[2-(2-Amino-ethoxy)-ethoxy]-acetyl)2-(γ-Glu)-(10-(4-carboxyphenoxy)decanoyl))FI-(D-Glu)-αMeY-LIEGGPSSGAPPPSK((2-[2-(2-Amino-ethoxy)-ethoxy]-acetyl)2-(γ-Glu)-(10-(4-carboxyphenoxy)decanoyl))-NH2

Changes are numbered by the printed parent chain. *1 amine or outer side, *2 acyl side, *3 side chain or, on linkers, in order; H or OH if unused. Where no end group is shown, it is not given here. Side-chain parts run from the residue outwards. [ ]: non-standard residue; d: D form. The star is where a group is joined. Decanoyl(10-(4-HOOC-PhO)) = O=C(O)c1ccc(OCCCCCCCCCC(=O)*)cc1; αMePhe(2-F) = C[C@](N)(Cc1ccccc1F)C(=O)O; γGlu = O=C(O)[C@H](CCC(=O)[*:2])N[*:1]; αMeY = C[C@](N)(Cc1ccc(O)cc1)C(=O)O; αMeL = CC(C)C[C@](C)(N)C(=O)O; Nle = CCCC[C@H](N)C(=O)O; Orn = NCCC[C@H](N)C(=O)O; AEEA = NCCOCCOCC(=O)O; Aib = CC(C)(N)C(=O)O

For the first assay, the target named is T1, human GIP receptor (human, UniProt P48546 22-466).
T1 sequence (looked up): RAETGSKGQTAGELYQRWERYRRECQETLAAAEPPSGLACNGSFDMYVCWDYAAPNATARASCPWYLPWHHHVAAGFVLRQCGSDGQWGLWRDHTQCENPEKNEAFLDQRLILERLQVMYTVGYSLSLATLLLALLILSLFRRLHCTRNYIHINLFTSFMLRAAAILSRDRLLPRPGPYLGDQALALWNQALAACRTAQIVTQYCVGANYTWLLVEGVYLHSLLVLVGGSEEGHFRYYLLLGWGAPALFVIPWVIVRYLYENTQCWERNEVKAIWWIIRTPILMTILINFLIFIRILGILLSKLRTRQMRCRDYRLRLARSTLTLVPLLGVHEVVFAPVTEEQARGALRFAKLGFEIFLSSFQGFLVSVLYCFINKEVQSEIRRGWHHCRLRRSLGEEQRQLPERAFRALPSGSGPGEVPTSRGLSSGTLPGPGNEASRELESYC
Briefly: cell-based or functional assay.
In the case of Y[Aib]EGT[αMePhe(2-F)]TSD[Nle]SI[αMeL]LD[Orn]IAQ[Aib]EFIK([AEEA-AEEA-γGlu-Decanoyl(10-(4-HOOC-PhO))])[αMeY]LIK([AEEA-AEEA-γGlu-Decanoyl(10-(4-HOOC-PhO))])GGPSSGAPPPS-NH2 [Example 314], the “cAMP EC50” value came out at 0.0216 nM.

In the case of B1, the “cAMP EC50” value turned out to be 0.0062 nM.

Turning to B2, the “cAMP EC50” value stood at 0.0144 nM.

Take B3: the “cAMP EC50” value was determined as 0.025 nM.

As to B4, the “cAMP EC50” value came to 0.018 nM.

In the case of B5, the “cAMP EC50” value stood at 0.00871 nM.

For the molecule B6, the “cAMP EC50” value was determined as 0.0109 nM.

As for B7, the “cAMP EC50” value is 0.00973 nM.

Consider B8, for which the “cAMP EC50” value was 0.00793 nM.

For B9, the “cAMP EC50” value came to 0.0107 nM.

Turning to B10, the “cAMP EC50” value is 0.012 nM.

The target of a further assay is human glucagon receptor (human, UniProt P47871 26-477). Briefly: cell-based or functional assay.
Consider Y[Aib]EGT[αMePhe(2-F)]TSD[Nle]SI[αMeL]LD[Orn]IAQ[Aib]EFIK([AEEA-AEEA-γGlu-Decanoyl(10-(4-HOOC-PhO))])[αMeY]LIK([AEEA-AEEA-γGlu-Decanoyl(10-(4-HOOC-PhO))])GGPSSGAPPPS-NH2 [Example 314], for which the “cAMP EC50” value was greater than 9950 nM.

As to B1, the “cAMP EC50” value is greater than 9950 nM.

Take B2: the “cAMP EC50” value was greater than 9950 nM.

With B3, the “cAMP EC50” value was greater than 9950 nM.

On to B4, for which the “cAMP EC50” value was greater than 9950 nM.

As for B5, the “cAMP EC50” value is greater than 9950 nM.

B6: the “cAMP EC50” value was greater than 9950 nM.

B7: the “cAMP EC50” value was greater than 9950 nM.

B8: the “cAMP EC50” value is greater than 9950 nM.

B9: the “cAMP EC50” value was greater than 9950 nM.

Take B10: the “cAMP EC50” value was greater than 9950 nM.

The target of a further assay is human GLP-1 receptor (human, UniProt P43220 24-463). Briefly: cell-based or functional assay.
As to Y[Aib]EGT[αMePhe(2-F)]TSD[Nle]SI[αMeL]LD[Orn]IAQ[Aib]EFIK([AEEA-AEEA-γGlu-Decanoyl(10-(4-HOOC-PhO))])[αMeY]LIK([AEEA-AEEA-γGlu-Decanoyl(10-(4-HOOC-PhO))])GGPSSGAPPPS-NH2 [Example 314], the “cAMP EC50” value was found to be 0.673 nM.

With B1, the “cAMP EC50” value amounted to 0.388 nM.

Consider B2, for which the “cAMP EC50” value was determined as 0.246 nM.

Consider B3, for which the “cAMP EC50” value worked out at 0.347 nM.

With B4, the “cAMP EC50” value was determined as 0.211 nM.

For the molecule B5, the “cAMP EC50” value was found to be 0.175 nM.

As for B6, the “cAMP EC50” value was determined as 0.263 nM.

In the case of B7, the “cAMP EC50” value came out at 0.405 nM.

With B8, the “cAMP EC50” value is 0.203 nM.

Regarding B9, the “cAMP EC50” value was 0.295 nM.

Take B10: the “cAMP EC50” value stood at 0.207 nM.

Another assay deals with human glucagon-like peptide-1 (GLP-1) receptor (human) (UniProt P43220). The assay can be described thus: cell-based or functional assay.
For the molecule B11, the cAMP EC50 was determined as 1 nM and the cAMP Emax amounted to 108%.

The molecule B12 registered a cAMP EC50 of 0.537 nM and a cAMP Emax of 89.1%.

The next assay addresses T2, human glucose-dependent insulinotropic polypeptide (GIP) receptor (human) (UniProt P48546).
T2 sequence (looked up): T1 sequence (looked up)
Briefly: cell-based or functional assay.
As for B11, the cAMP EC50 turned out to be 0.022 nM and the cAMP Emax came out at 103%.

B12: the cAMP EC50 is 0.0176 nM and the cAMP Emax was 99.2%.

The target of a further assay is human glucagon receptor (human) (UniProt P47871). The assay can be described thus: cell-based or functional assay.
B11 had a cAMP EC50 greater than 9950 nM.

For B12, the cAMP EC50 was greater than 9950 nM.

In another assay the target is human GLP-1 receptor (human, UniProt P43220 24-463). The assay can be described thus: cell-based or functional assay. The source holds these as a separate data set.
Turning to B11, the “cAMP EC50 (1.0% HSA)” value is 77.7 nM and the “cAMP Emax (1.0% HSA)” value was 109%.

In the case of B12, the “cAMP EC50 (1.0% HSA)” value is 56.7 nM and the “cAMP Emax (1.0% HSA)” value was found to be 92.7%.

In the next assay the target is T3, human GIP receptor (human, UniProt P48546 22-466).
T3 sequence (looked up): T1 sequence (looked up)
Briefly: cell-based or functional assay.
B11: the “cAMP EC50 (1.0% HSA)” value is 4.24 nM and the “cAMP Emax (1.0% HSA)” value is 90.2%.

Turning to B12, the “cAMP EC50 (1.0% HSA)” value came out at 4.1 nM and the “cAMP Emax (1.0% HSA)” value was 91.8%.

A further assay addresses human glucagon receptor (human, UniProt P47871 26-477). Briefly: cell-based or functional assay. This is another data set of the same source.
B11: the “cAMP EC50 (1.0% HSA)” value was greater than 9950 nM.

Take B12: the “cAMP EC50 (1.0% HSA)” value is greater than 9950 nM.

The values above are taken from patent US20230265151A1, “GIP/GLP1 CO-AGONIST COMPOUNDS” (priority 2020, published 2023).
